Reference: the Immune Epitope Database (IEDB)

Key:
Assay in all cases: IEDB peptide-MHC binding, purified MHC/competitive/radioactivity; filed as Kd, often an IC50 or EC50 that approximates it; ≥ and ≤ were set here for values at or beyond the usual limits of such assays
Settings in all cases: source organism: human papillomavirus 18
[1] = target: HLA-A*02:01
[2] = target: HLA-A*11:02
[3] = target: HLA-A*03:01
[4] = target: HLA-A*01:01
[5] = target: HLA-A*24:02

Sequence	Kd [1] [nM]	Kd [2] [nM]	Kd [3] [nM]	further results
SLQDIEITC	532	–	–	–
FQQLFLNTL	417	–	–	–
GQCHSCCNR	–	64	–	–
RQERLQRRR	–	–	484	–
KCIDFYSRI	417	–	–	–
SIPHAACHK	–	15	–	–
HLNEKRRFH	–	–	667	–
LQDIEITCV	–	–	625	Kd [4]: 988 nM
LFLNTLSFV	820	–	–	–
NTGLYNLLI	–	–	–	Kd [4]: 506 nM
ELTEVFEFA	500	–	–	–
FAFKDLFVV	3	–	–	–
KLPDLCTEL	602	–	–	–
VYCKTVLEL	–	563	–	Kd [5]: 24 nM
LLIRCLRCQ	–	–	508	–
RCQKPLNPA	–	563	–	–

Sequence	Kd [1] [nM]	Kd [2] [nM]	Kd [3] [nM]	further results
ATLQDIVLH	–	12	–	–
SVYGDTLEK	–	2	32	–
GLYNLLIRC	135	188	313	–
DIEITCVYC	649	–	462	Kd [4]: 506 nM
RHTMLCMCC	–	–	–	Kd [5]: 733 nM
FLNTLSFVC	943	–	–	–
LIRCLRCQK	–	375	526	–
IEITCVYCK	–	–	200	–
DLFVVYRDS	–	–	1000	–
VVYRDSIPH	–	5	–	–
CIDFYSRIR	–	27	273	Kd [4]: 810 nM
LFVVYRDSI	–	–	441	–
FKDLFVVYR	500	500	330	Kd [4]: 736 nM
VYGDTLEKL	–	–	–	Kd [5]: 222 nM
HTMLCMCCK	–	5	73	–
TEVFEFAFK	–	257	–	–
